# Test results as given in the nanobody polyreactivity screen of Harvey et al. (2022).
# Assay: yeast display, Sf9 membrane polyspecificity reagent, FACS + sequencing; frameworks hold sequencing errors
# Method in brief: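 Synthetic nanobody libraries on Saccharomyces cerevisiae BJ5465 were galactose-induced for 36–48 hours, stained 1 hour at 4 °C with 10% biotinylated, detergent-solubilized Sf9 membrane reagent and enriched on streptavidin microbeads. FACS then separated cells into low and high (top ~1%) gates by anti-HA (expression) and streptavidin (reagent binding) fluorescence. Genes were colony-PCR amplified, MiSeq 2 × 250 sequenced and CDR-length filtered. A clone's polyreactivity label is that of its gate of origin.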
row,Sequence,polyreactivity (PSR sort gate)
1,QVQLVESGGGLVQAGGSLRLSCAASGSTFYSNVMGWYRQAPGKERELVAAISQSGGRTFYADSVKGRFTISRDNAKNTVYLQMNSLIPEDTAVYYGNYVRAQPRNPYDYWGQGTQVTVSS,high polyreactivity
2,QVQLVESGGGLVQAGGSLRLSCAASGSTFYSYAMGWYRQAPGKERELVAAITTSGGSTYYADSVKGRFTISRDNAKNTVYLQMNSLKPEDTAVYYCAAYDLYWYEYWGQGTQVTVSS,low polyreactivity
3,QVQLVESGGGLVQAGGSLRLSCAASGSTFYSYGMGWYRQAPGKERELVAAITEDGDTTYYADSVKGLYTISRDNAKNTVYLQMNSLKPEDTAVYYCAAETYYLDDYWGQATQVTVSS,high polyreactivity
4,QVQLVESGGGLVQAGGSLRLSCAASGSTFYSYVMGWYRQAPGKERELVAVITSGGSTTYADSVKGRFTISRDNAKNTVYLQMNSLKPEDTAVYYCAKRNYLSYRYDYWGQGTQVTVSS,low polyreactivity
5,QVQLVESGGGLVQAGGSLRLSCAASGSTFYTNAMGWYRQAPGKERELVAAISYGGGSTYYADSVKGRFTISRDNAKNTVYLQMHSLKPEDTAVYYCAARAPEKSWWRYRYGYWGQGTQVTVSS,high polyreactivity
6,QVQLVESGGGLVQAGGSLRLSCAASGSTFYTNAMGWYRQAPGKEREMVASITGGGSTYYADSVKGRFTISRDNAKNTVYLQMNSLKPEDTAVYYCDADNVGGGWEFDSWGQGTQVTVSS,low polyreactivity
7,QVQLVESGGGLVQAGGSLRLSCAASGSTFYTYTMGWYRQAPGKERALVAAISSSGGDTYYADSVKGRFTISRDNAKNTVYLQMNSLKPEDTAVYYCAALGAFPSLEFDYWGQGTQVTVSS,low polyreactivity
8,QVQLVESGGGLVQAGGSLRLSCAASGSTFYTYVMGWYRQAPGKERELVAAISSGGGNTYYADSVKGRFTISRDNAKYTVYLQMNSLKPEDTAVYYCAASHTSYYLRYGYWGQGTQVTVSS,high polyreactivity
9,QVQLVESGGGLVQAGGSLRLSCAASGSTFYVNAMGWYRPAPGKERELVAAITKSGGNTYYADSVKGRFTISRDNAKNTVYLQMNSLKPEDTAVYYCAAYKRYSSLTGYESWGQGTQVTVSS,high polyreactivity
10,QVQLVESGGGLVQAGGSLRLSCAASGSTFYVNAMGWYRQAPGKEREFVAAISWSGGSTYYADSVKGRFTISRDNAKNTVYLQMNSLKPEDTAVYYCAADRVRKDGVLFDYWGQGTQGTVSS,high polyreactivity
11,QVQLVESGGGLVQAGGSLRLSCAASGSTFYVNAMGWYRQAPGKERELVAAINSGGRTYYADSVKGRFTISRDNAKNTVYLQMNSLKPEDTAVYYCAAEVSYYLNEFDYWGQGTQVTVSS,low polyreactivity
12,QVQLVESGGGLVQAGGSLRLSCAASGSTFYVYAIGWYRHAPGKERELVADITYSDGGTFYADSVKGRFTISRDNAKTTVYLQMNSLKPEDTAGYYCATSYLWNYRGDIFDYWGQGTQVTVSS,high polyreactivity
13,QVQLVESGGGLVQAGGSLRLSCAASGSTFYVYAMGWYRQAPGKERELVAAINFNGGGTYYADSVKGRFTISRDNAMNTVYLQMNSLKPEDTAFYYCNAEDDYTYDRSFGGYKYDYWGQGTQVTVSS,low polyreactivity
14,QVQLVESGGGLVQAGGSLRLSCAASGSTFYVYAMGWYRQAPGKERELVATISSGGITNYADSVKGRFTISRDNAMNTVYLQMNSLKPEDTAVYYCNAKKAYYGRGMNYWGQGTQVTVSS,low polyreactivity
15,QVQLVESGGGLVQAGGSLRLSCAASGSTFYVYAMGWYRQAPGKERELVAVIRYRGDRTYYADSVKGRFTISRDNAKNTVYLQMNSLKPEDTAVYYCAKEGFYKYYWGQGTQVTVSS,high polyreactivity
16,QVQLVESGGGLVQAGGSLRLSCAASGSTFYVYAMGWYRQAPGTERELVAAIDYSDGSTYYADSVKGRFTISRDNAKNTVYLQMNSRKPEDTAVYYCAADTVSWFEYYYWGQGTQVTVSS,high polyreactivity
17,QVQLVESGGGLVQAGGSLRLSCAASGSTFYVYVMGGYRQAPGKERELVAAITSSGDITYYADSVKGRFTISRYNAKITVYLQMNSLIPEETAVYYCAASPFRRRYNGENDYWGQGTQVTGSS,high polyreactivity
18,QVQLVESGGGLVQAGGSLRLSCAASGSTFYWYAMGWYRPAPGKERELVAAISSGADTSYADSVKGRFTISRDNAKNTVYLQMNSLKPEDTAVYYCARRYRARGSMYYWGQGTKVTVSS,high polyreactivity
19,QVQLVESGGGLVQAGGSLRLSCAASGSTFYWYTMGWYRQAPGKEKELVARISSSGSTNYADSVKGRFTISRDNAKNTVYLQMNSLKPEDTAVYYCNKDWIYRGYDYWGQGTQVTVSS,high polyreactivity
20,QVQLVESGGGLVQAGGSLRLSCAASGSTFYYMGWSRQAPGKERELVAAITQSGGSTYYADSVKGRFTISRDNAKNTVYLQMNSLKPEDTAVYYCAARYASPRYKSKMDYWGQGTQVTVSS,high polyreactivity

row,Sequence,polyreactivity (PSR sort gate)
1,QVQLVESGGGLVQAGGSLRLSCAASGSTFYYNAMGWYRQAPGKERELVAAITFTGGSTYADSVKGRFTISRDNAKNTVYLQLNSLKPEDTAVYYCAATIQGHDYLGTGYDYWGQGTQVTVSS,low polyreactivity
2,QVQLVESGGGLVQAGGSLRLSCAASGSTFYYNAMGWYRTAPGKERELVAVIDGSGGFTYYADSVKGRFTISRDNAKNTVYLQMNSLKPEDTAVYYCNADLVYNTFIFSGGDEYDYWGQGTQVTVSS,high polyreactivity
3,QVQLVESGGGLVQAGGSLRLSCAASGSTFYYNTMGWYRQAPGKERELVAAISSGGSTNYADSVKGRFTISRDNAKNTVYLQMNSLKPEDTAVYYCAKRRGGALYAYRYYYWGQGTQVTVSS,high polyreactivity
4,QVQLVESGGGLVQAGGSLRLSCAASGSTFYYNTMGWYRQAPGKERELVAAISWRGGSTYYADSVKGRFTISRDNAKNTVYLLMNSLKPVDTAVYYCAAGWYPRSVRPFESFVGLDYWGQGTQVTVSS,high polyreactivity
5,QVQLVESGGGLVQAGGSLRLSCAASGSTFYYYAMGCYRQAPGKERELVASITTGGGSTYYADSVKGRFTISRDNAKNTVYLQLNSLKPEDTAVYYCGAALAYYYWWYDYWGQCTQVTVSS,low polyreactivity
6,QVQLVESGGGLVQAGGSLRLSCAASGSTFYYYAMGWYRPAPGKERELVAAISSSGGITYYADSVKGRFTISRDNAKNTVYLQMNSLKPEDTAVYYCAADVIVFYYGPNYWGDIGYGYWGQGTQVTVSS,low polyreactivity
7,QVQLVESGGGLVQAGGSLRLSCAASGSTFYYYAMGWYRQAPGKDRELVAAISKRDGRTYYADSVKGRFTISRDNAKNTVYLQMNSLKPEDTAVYYCNAYSYGHYYWGQGTQVTVSS,high polyreactivity
8,QVQLVESGGGLVQAGGSLRLSCAASGSTFYYYAMGWYRQAPGKEMELVAAINWSGASTYYADSVKGRFTISRDNAKNTVYLQMNSLIPEDTAVYYCAAGYAGGYGVTFDYCGQGTQVTVSS,low polyreactivity
9,QVQLVESGGGLVQAGGSLRLSCAASGSTFYYYAMGWYRQAPGKEREFVAAITFRGGSTYYADSVKGRFTISRDNAKNTVYLQMNSLKPEDTAVYYCAAKPPFRNYVRYDYWGQGTQVTVSS,high polyreactivity
10,QVQLVESGGGLVQAGGSLRLSCAASGSTFYYYAMGWYRQAPGKEREFVASISSRGTSTYYADSVKGRFTISRDHAKNTVYLQMNSMKPEDTAVYYCAARGWGPTRAYDYWGQGTQVTVSS,high polyreactivity
11,QVQLVESGGGLVQAGGSLRLSCAASGSTFYYYAMGWYRQAPGKERELFATINKNVGITYYADSVKGRFTISRDNAKNTVYLQRNSMKTEVTAVDYCAAHGRINPDGPRTVFFASEEDYWGQGTQVTVSS,low polyreactivity
12,QVQLVESGGGLVQAGGSLRLSCAASGSTFYYYAMGWYRQAPGKERELVAAINSGGRTNYADSVKGRFTISRDNAKNTVYLQMNSLKPEDTAVYYCAKRTYPYGTYRSVWGYDYWGQGTQVTVSS,low polyreactivity
13,QVQLVESGGGLVQAGGSLRLSCAASGSTFYYYAMGWYRQAPGKERELVAAISVRAGITYYADSVKGRFTISRDNAKNTVYLQMNSLKPEDTAVYYCAKDHWTTSSDEGDYWGQGTQVTVSS,low polyreactivity
14,QVQLVESGGGLVQAGGSLRLSCAASGSTFYYYAMGWYRQAPGKERELVARITWIGGSTYYADSVKGRFTISRDNAKNTVYLQMNSLKPEDTAVYYCAAGWYRRIYGGWGYDYWGQGTQVTVSS,low polyreactivity
15,QVQLVESGGGLVQAGGSLRLSCAASGSTFYYYAMGWYRQAPGKERELVAVISWGGGSTYYADSVKGRFTISRDNAKNTVYLQMNSLKPEDTAVYYCAAVYDEYQTTHEYDYWGQGTQVTVSS,low polyreactivity
16,QVQLVESGGGLVQAGGSLRLSCAASGSTFYYYAMGWYSPAPGKERELVAAISRGGGSTNYADSVKGRFTISRDNAKNTVYLQMNSLKPEDTAVYYCATDYKYYGRPYNYWGQGTQVTVSS,high polyreactivity
17,QVQLVESGGGLVQAGGSLRLSCAASGSTFYYYTMGWYRQAPGKERELVAISWDGDSTYYADSVKGRFTISRDNAKNTVYLQMNSLKPEDTAVYYCAAADYYLPDDVSDYVDANFDYWGQGTQVTVSS,low polyreactivity
18,QVQLVESGGGLVQAGGSLRLSCAASGSTGFYGMGWYRQAPGKERELVAAITFRSGSTYYADSVKGRFTISRDNAKNTVYLQMNSLKPEDTAVYYCAAYSFNNGHRYDYWGQGTQVTVSS,high polyreactivity
19,QVQLVESGGGLVQAGGSLRLSCAASGSTIDGYAMGWYRQAPRKERELVAAITFDGSSTYYADSVKGRFTISRDNAKNTVYLQMNSLKPEVTAVYYCAAASSYWVLWDDYWGQGTQVTVSS,low polyreactivity
20,QVQLVESGGGLVQAGGSLRLSCAASGSTIDTYAMGWYRQAPGKERELVAGISWSGGSTFYADSVKGRFTISRDNAKNTVYLQMNSLKPEDTAVYYCAKQLWVGVKYDYWGQGTQVTVSS,low polyreactivity
